Test results: PMC10272163, “Genome-wide association studies identify OsWRKY53 as a key regulator of salt tolerance in rice”

Molecular target: MBP-OsWRKY53 (Oryza sativa (rice), UniProt A7BEY7 1-487)
Test: EMSA; 60 fmol probe, 2 ug protein; EMSA: 20 uL, 25 C 30 min, LightShift kit buffer (composition not given), 6% native PAGE, 0.5x TBE pH 8.3, 4 C; SPR: CM5 chip with anti-biotin antibody capturing biotin-oligo, 10 uL/min, reaction buffer composition and temperature not given
Conditions: protein: recombinant; tags: MBP (N-terminal, pMal-c2x); label: biotin

Sequence of MBP-OsWRKY53 (A7BEY7 entry or part of it): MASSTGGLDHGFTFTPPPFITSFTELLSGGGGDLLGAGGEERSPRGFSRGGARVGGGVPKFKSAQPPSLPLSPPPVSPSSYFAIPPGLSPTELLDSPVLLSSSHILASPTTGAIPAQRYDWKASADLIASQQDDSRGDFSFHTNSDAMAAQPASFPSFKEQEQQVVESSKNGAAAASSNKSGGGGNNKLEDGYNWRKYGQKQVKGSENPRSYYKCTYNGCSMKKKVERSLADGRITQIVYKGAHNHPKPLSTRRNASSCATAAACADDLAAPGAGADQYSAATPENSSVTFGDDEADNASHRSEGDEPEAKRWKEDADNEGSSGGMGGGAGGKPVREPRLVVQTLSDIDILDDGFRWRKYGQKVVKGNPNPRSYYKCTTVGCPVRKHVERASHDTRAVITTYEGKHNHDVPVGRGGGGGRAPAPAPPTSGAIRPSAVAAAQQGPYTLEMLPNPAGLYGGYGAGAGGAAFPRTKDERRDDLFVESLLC

B1: OsHKT1;5 (SKC1) promoter W-box probe, 48 bp (SKC1-biotin-F1) (dsDNA)
DNA 1: ATAAGATGTTTTTGACTTTGGTCAAAGTCAAACTGTTTATGTTTGACC
DNA 2: GGTCAAACATAAACAGTTTGACTTTGACCAAAGTCAAAAACATCTTAT
binding result: binds

B2: OsMKK10.2 promoter W-box probe, 48 bp (MKK10.2-biotin-F1) (dsDNA)
DNA 1: CGGTTTGGGAACCGACTTAGGGCGGTCAAGGCGCGAGCTGGCGCTCCG
DNA 2: CGGAGCGCCAGCTCGCGCCTTGACCGCCCTAAGTCGGTTCCCAAACCG
binding result: binds
